Biological target: HA-SNAP-mGluR3 (rat metabotropic glutamate receptor 3) (rat), P31422
Assay: SiMPull with photobleaching step analysis
Conditions: remark: other sources report otherwise

B1: HA-SNAP-mGluR3 (rat metabotropic glutamate receptor 3), P31422 23-879 (receptor)
chain: LGDHNFMRREIKIEGDLVLGGLFPINEKGTGTEECGRINEDRGIQRLEAMLFAIDEINKDNYLLPGVKLGVHILDTCSRDTYALEQSLEFVRASLTKVDEAEYMCPDGSYAIQENIPLLIAGVIGGSYSSVSIQVANLLRLFQIPQISYASTSAKLSDKSRYDYFARTVPPDFYQAKAMAEILRFFNWTYVSTVASEGDYGETGIEAFEQEARLRNICIATAEKVGRSNIRKSYDSVIRELLQKPNARVVVLFMRSDDSRELIAAANRVNASFTWVASDGWGAQESIVKGSEHVAYGAITLELASHPVRQFDRYFQSLNPYNNHRNPWFRDFWEQKFQCSLQNKRNHRQVCDKHLAIDSSNYEQESKIMFVVNAVYAMAHALHKMQRTLCPNTTKLCDAMKILDGKKLYKEYLLKINFTAPFNPNKGADSIVKFDTFGDGMGRYNVFNLQQTGGKYSYLKVGHWAETLSLDVDSIHWSRNSVPTSQCSDPCAPNEMKNMQPGDVCCWICIPCEPYEYLVDEFTCMDCGPGQWPTADLSGCYNLPEDYIKWEDAWAIGPVTIACLGFLCTCIVITVFIKHNNTPLVKASGRELCYILLFGVSLSYCMTFFFIAKPSPVICALRRLGLGTSFAICYSALLTKTNCIARIFDGVKNGAQRPKFISPSSQVFICLGLILVQIVMVSVWLILETPGTRRYTLPEKRETVILKCNVKDSSMLISLTYDVVLVILCTVYAFKTRKCPENFNEAKFIGFTMYTTCIIWLAFLPIFYVTSSDYRVQTTTMCISVSLSGFVVLGCLFAPKVHIVLFQPQKNVVTHRLHLNRFSVSGTATTYSQSSASTYVPTVCNGREVLDSTTSSL
modifications: here or on the partner: SNAP tag labelled with SBG-JF646; SNAP tag labelled with SBG-JF646
% of spots with 2 bleaching steps in the receptor channel: 50% | stoichiometry N: 2

Source: article doi:10.1101/2025.02.03.636340
